This note sets out measurements from patent US6713604 (TEXAS BIOTECHNOLOGY, dated 2004).

Bridges are numbered along the chain shown (N, C = ends). Where no end group is shown, it is not given here. [ ]: non-standard residue; d: D form. dPen = CC(C)(S)[C@@H](N)C(=O)O

To fix the notation:
B1: fusion protein of the two N-terminal domains of human VCAM with the hinge, CH2 and CH3 regions of mouse IgG2A (Fc fusion, UniProt P19320 25-220, looked up)
chain: FKIETTPESRYLAQIGDSVSLTCSTTGCESPFFSWRTQIDSPLNGKVTNEGTTSTLTMNPVSFGNEHSYLCTATCESRKLEKGIQVEIYSFPKDPEIHLSGPLEAGKPITVKCSVADVYPFDRLEIDLLKGDHLMKSQEFLEDADRKSLETKSLEVTFTPVIEDIGKVLVCRAKLHIDEMDSVPTVRQAVKELQVY
notes: domain: two N-terminal domains; Secreted from transfected COS cells and captured on Dynal magnetic beads coated with goat anti-mouse IgG; also called VCAM-1; purified VCAM; not shown: mouse IgG2A hinge, CH2 and CH3 regions, amplified from cDNA of the hybridoma cell line 402C10
B2: SEQ ID NO 9 (peptide)
peptide: SWLDVC-OH
modifications: thioether (positions not given here); not fully specified (N-terminus, bridges); printed as CH2CO-Ser-Trp-Leu-Asp-Val-Cys-acid; also: sulfide, sulfoxide or sulfone not given here
notes: also called CH2CO-Ser-Trp-Leu-Asp-Val-Cys-acid
B3: SEQ ID NO 7 (peptide)
peptide: GPEFLDV
modifications: cyclic: lactam formed by condensation of the N and C terminus
notes: Head-to-tail cyclic lactam; also called Gly-Pro-Glu-Phe-Leu-Asp-Val
B4: SEQ ID NO 42 (peptide)
peptide: [dPen]WLDVC-OH
modifications: disulfide 1-6; N-terminus assumed
SMILES: CC(C)C[C@@H]1NC(=O)[C@H](Cc2c[nH]c3ccccc23)NC(=O)[C@H](N)C(C)(C)SSC[C@@H](C(=O)O)NC(=O)[C@H](C(C)C)NC(=O)[C@H](CC(=O)O)NC1=O
notes: Disulfide cyclic peptide; also called dPen-Trp-Leu-Asp-Val-Cys-acid
B5: SEQ ID NO 10 (peptide)
peptide: {CH2CO}-EWLDVC-OH
modifications: thioether N-6; also: sulfide, sulfoxide or sulfone not given here
notes: also called CH2CO-Glu-Trp-Leu-Asp-Val-Cys-acid
B6: SEQ ID NO 4 (peptide)
peptide: EWLDV
modifications: cyclic: lactam formed by condensation of the N and C terminus
notes: Head-to-tail cyclic lactam; also called Glu-Trp-Leu-Asp-Val
B7: SEQ ID NO 5 (peptide)
peptide: EWLDD
modifications: cyclic: lactam formed by condensation of the N and C terminus
notes: Head-to-tail cyclic lactam; also called Glu-Trp-Leu-Asp-Asp
B8: SEQ ID NO 39 (peptide)
peptide: [dC]SWLDV[dC]-OH
modifications: disulfide 1-7; N-terminus assumed
SMILES: CC(C)C[C@@H]1NC(=O)[C@H](Cc2c[nH]c3ccccc23)NC(=O)[C@H](CO)NC(=O)[C@H](N)CSSC[C@H](C(=O)O)NC(=O)[C@H](C(C)C)NC(=O)[C@H](CC(=O)O)NC1=O

For the first assay, the target named is T1, integrin α4β1 (human, UniProt P13612 34-1032; P05556 21-798).
T1 construct: whole, on cells; also called VLA-4; very late antigen-4
T1 sequence (P13612 34-1032, chain 1 of 2): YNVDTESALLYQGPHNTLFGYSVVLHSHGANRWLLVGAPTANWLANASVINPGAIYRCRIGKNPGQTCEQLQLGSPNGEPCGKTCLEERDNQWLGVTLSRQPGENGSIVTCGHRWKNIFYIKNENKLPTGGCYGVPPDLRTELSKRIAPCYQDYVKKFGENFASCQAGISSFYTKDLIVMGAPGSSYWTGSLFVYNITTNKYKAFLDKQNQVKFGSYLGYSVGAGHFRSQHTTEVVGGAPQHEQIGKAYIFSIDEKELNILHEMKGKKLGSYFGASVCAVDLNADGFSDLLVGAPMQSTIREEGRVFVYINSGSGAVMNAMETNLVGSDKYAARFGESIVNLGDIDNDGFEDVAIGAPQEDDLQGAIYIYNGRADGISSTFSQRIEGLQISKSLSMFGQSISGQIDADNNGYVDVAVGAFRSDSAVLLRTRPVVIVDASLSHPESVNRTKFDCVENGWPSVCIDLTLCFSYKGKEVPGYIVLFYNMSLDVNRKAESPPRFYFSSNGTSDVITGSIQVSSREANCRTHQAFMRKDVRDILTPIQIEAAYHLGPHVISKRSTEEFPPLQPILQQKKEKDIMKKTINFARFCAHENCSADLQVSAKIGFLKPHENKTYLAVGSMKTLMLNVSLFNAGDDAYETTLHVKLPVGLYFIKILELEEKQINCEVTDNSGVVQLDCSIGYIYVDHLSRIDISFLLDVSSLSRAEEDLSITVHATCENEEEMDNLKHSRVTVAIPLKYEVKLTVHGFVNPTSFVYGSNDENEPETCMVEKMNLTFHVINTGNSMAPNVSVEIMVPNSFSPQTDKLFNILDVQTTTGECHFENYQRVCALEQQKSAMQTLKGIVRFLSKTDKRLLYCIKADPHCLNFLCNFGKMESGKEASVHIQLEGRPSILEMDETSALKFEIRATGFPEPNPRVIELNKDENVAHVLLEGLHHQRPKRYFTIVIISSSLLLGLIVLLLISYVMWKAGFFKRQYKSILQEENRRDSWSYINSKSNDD
T1 sequence (P05556 21-798, chain 2 of 2): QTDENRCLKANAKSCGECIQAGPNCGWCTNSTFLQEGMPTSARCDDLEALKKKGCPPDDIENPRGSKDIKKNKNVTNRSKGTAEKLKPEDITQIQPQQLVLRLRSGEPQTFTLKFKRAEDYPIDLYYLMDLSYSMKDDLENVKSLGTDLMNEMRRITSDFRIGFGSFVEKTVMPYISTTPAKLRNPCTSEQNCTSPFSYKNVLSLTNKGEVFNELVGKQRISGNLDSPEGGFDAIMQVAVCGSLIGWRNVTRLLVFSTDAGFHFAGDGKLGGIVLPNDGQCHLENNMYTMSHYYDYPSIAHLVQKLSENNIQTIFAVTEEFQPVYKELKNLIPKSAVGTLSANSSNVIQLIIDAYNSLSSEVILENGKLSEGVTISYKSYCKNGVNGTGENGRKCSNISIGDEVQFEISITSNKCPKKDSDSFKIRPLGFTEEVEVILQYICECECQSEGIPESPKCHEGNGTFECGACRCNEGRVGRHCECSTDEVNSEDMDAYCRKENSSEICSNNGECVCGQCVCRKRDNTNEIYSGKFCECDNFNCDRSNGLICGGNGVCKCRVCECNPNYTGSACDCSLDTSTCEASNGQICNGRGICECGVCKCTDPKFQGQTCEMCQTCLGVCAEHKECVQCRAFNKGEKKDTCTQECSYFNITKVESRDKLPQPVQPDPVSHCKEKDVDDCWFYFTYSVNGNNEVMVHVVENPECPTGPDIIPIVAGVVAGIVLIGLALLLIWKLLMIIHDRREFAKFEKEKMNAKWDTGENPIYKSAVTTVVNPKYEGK
As to the kind of experiment: VCAM-IgG fusion on goat anti-mouse IgG magnetic beads; binding of Ramos and HL-60 cells. The source says: (§1) The media was collected and active protein was purified by immunoprecipitation using Dynal magnetic polystyrene beads coated with goat anti-mouse IgG. Following immunoprecipitation, the beads bound cells that expressed the integrin α_4β_1 such as Ramos and HL-60.
On to B1, for which the binding result is “binds”.

The next assay concerns the target T1, integrin α4β1. Kind of assay: inhibition of HL-60 cell (α4β1) binding to VCAM-IgG coated beads, fluorimetry. The procedure: as §1
HL-60 cells were fluorescently labeled with Calcein AM C-3099 (Molecular Probes) and resuspended in 1 ml of binding buffer (Hank's balanced salt solution, pH 7.4, 1.0 mM CaCl_2, 1.0 mM MgCl_2). The beads (10 µl, 4×10^6 beads/ml) were placed in wells of a 96-well microtiter dish with 10 µl of peptide at various concentrations. The beads were incubated with 10 µl of labeled cells (10^7 cells/ml) for 10 min at room temperature. Following immobilization of the beads onto the plastic with a magnet, unbound cells were removed by washing three times with binding buffer. The remaining bound cells were lysed in 50 mM Tris, pH 7.4, 5.0 mM EDTA, 1.0% NP-40 and quantitated by fluorimetry using a Millipore Cytofluor 2350 fluorimeter. Dose response curves were calculated and IC$50$ values determined. Alternatively, the percent adhesion was determined at a single peptide concentration for comparison among peptides.
Take B2: the “peptide concentration that significantly inhibits binding” value was less than 10 µM.

On to B3, for which the “peptide concentration that significantly inhibits binding” value is less than 10 µM.

For EWLDVPEWLDV (cyclic: lactam formed by condensation of the N and C terminus, Head-to-tail cyclic lactam) [SEQ ID NO 6], the “peptide concentration that significantly inhibits binding” value is less than 10 µM.

As to B4, the “peptide concentration that significantly inhibits binding” value was less than 10 µM.

Regarding B5, the “peptide concentration that significantly inhibits binding” value is less than 10 µM.

Take B6: the “peptide concentration that significantly inhibits binding” value is less than 10 µM.

With B7, the “peptide concentration that significantly inhibits binding” value is less than 10 µM.

In the next assay the target is integrin α4β1 (human) (UniProt P13612). The description is as above.
integrin α4β1 (human), sequence (P13612 34-1032, chain 1 of 2): as the sequence (P13612 34-1032, chain 1 of 2) above
integrin α4β1 (human), sequence (P05556 21-798, chain 2 of 2, further chain): as the sequence (P05556 21-798, chain 2 of 2) above
Turning to B8, the peptide concentration that significantly inhibits binding is less than 10 µM.
